In patent US20230242624A1 (NEURIMMUNE, published 2023):
Values joined by “and” are separate entries in the source; they are usually repeats but may differ in a detail not shown here. Equal values may be shown once.

How the values were obtained:
[1] = target: 2019-nCov Spike protein (S1 mFC tag) (SARS-CoV-2, UniProt P0DTC2 16-685)
[2] = target: T1, SARS-CoV-2-S1 (RBD)-His protein (Trenzyme) (SARS-CoV-2, UniProt P0DTC2 319-541); experiment: direct ELISA on coated RBD-His
[3] = target: T1, SARS-CoV-2-S1 (RBD)-His protein …; experiment: competition ELISA, RBD binding to coated ACE2
[4] = target: T1, SARS-CoV-2-S1 (RBD)-His protein …
[5] = target: T1, SARS-CoV-2-S1 (RBD)-His protein …; experiment: direct ELISA on coated RBD-His (FIG. 1D)

B1: NI-607.649_B11 (antibody, V domains shown)
VH: QVQLVQSGAEVKKPGSSVKVSCKASGGTFSNYAISWVRQAPGQGLEWMGGIIPIFGTANYAQKFQGRVTITADESTSTAYMELSSLRSEDTAVYYCAGDRWYYDSSGYPTPDEYFQHWGQGTQVTVSS
VL: QSVLTQPPSVSGAPGQRVTISCTGSSSNIGAGYDVHWYQQLPGTAPKLLIYGNSNRPSGVPDRFSGSKSGTSASLAITGLQAEDEADYYCQSYDSSLSGVVFGGGTKLTVL
Question: Which “EC50 (read off the curve)” value [1] does the source give for B1 here?
Answer: ~500 pM

B2: NI-607.531_C8 IgG4 S228P (antibody, V domains shown)
VH: EVQLVESGGGVVQPGRSLRLSCTASGFTFSFYSVHWVRQAPGKGLEWVAVISYDGSTKYYADSVKGRFTISRDNSKNTLYLQMDSLRTEDTAVYYCASPPISPIPAAGTPLAYWGQGTLVTVSS
VL: not shown
Question: Which EC50 [2] does the source give for B2 here?
Answer: ~8.5 pM

Question: And the IC50 [3]?
Answer: ~0.191 mg/L

Question: And the “IC50 (read off the curve)” value [4]?
Answer: ~0.03 mg/L

B3: NI-607.649_B11 IgG4 S228P (antibody, V domains shown)
VH: B1 VH
VL: B1 VL
Question: With B3 as the binder, how does the IC50 [3] read?
Answer: ~0.047 mg/L

Question: And the “IC50 (read off the curve)” value [4]?
Answer: ~0.05 mg/L

Question: What about the EC50 [5] of the same binder?
Answer: ~8.5 pM

B4: NI-607.427_C5 IgG4 S228P (antibody, V domains shown)
VH: QVQLVQSGAEVKKPGASVKVSCKASGYTFTSYGISWVRQAPGQGLEWMGWISAYNGNTNYAQKLQGRVTMTTDTSTSTAYMELRSLRSDDTAVYYCARDNRAGWDQLDYWGQGTLVTVSS
VL: not shown
Question: B4 was tested. Which IC50 [3] did it give?
Answer: ~2.79 µg/mL and ~18.6 nM

B5: NI-607.532_C11 IgG4 S228P (antibody, V domains shown)
VH: QVQLVESGGGLIQPGGSLRLSCAASGFTVSSNYMSWVRQAPGKGLEWVSVIYSGGSTYYADSVKGRFTISRDNSKNTLFLQMNSLRAEDTAVYYCARDLQYYGMDVWGQGTTVTVSS
VL: DIQMTQSPSFLSASVGDRVTITCRASQGISSYLAWYQQKPGKAPKLLIYAASTLQSGVPSRFSGSGSGTEFTLTISSLQPEDFATYYCQQLDSYPPRDTFGQGTKVEIK
Question: Which IC50 [3] does the source give for B5 here?
Answer: ~2.32 µg/mL and ~15.4 nM

B6: NI-607.532_F9 IgG4 S228P (antibody, V domains shown)
VH: EVQLVESGGNLIQPGGSLRLSCAASGFTVSSNYMSWVRQAPGKGLEWVSVIYSGGSTYYADSVKGRFTISRDNSRNTLYLQMNSLRAEDTAVYFCARDRVVRGVRGNGMDVWGQGTTVTVSS
VL: AIRMTQSPSSLSASVGDRVTITCQASQDINIYLNWYQQRPGKAPKLLIYDASNLETGVPSRFSGSGSGTDFTFTISSLQPEDIATYYCHQYDNLPRTFGQGTKVDIK
Question: B6 was tested. Which IC50 [3] did it give?
Answer: ~1.09 µg/mL and ~7.3 nM
